From patent publication US20190321401A1 (JUNO THERAPEUTICS, published 2019)

Legend:
[1] = target: T1, HPV 16 E7 peptide on HLA-A*02:01 (human); assay: multimer staining
T1 peptide: YMLDLQPET

[2] = target: T2, HPV 16 E6 peptide on HLA-A*02:01 (human); assay: multimer staining
T2 peptide: TIHDIILECV

[3] = target: T3, HPV 16 E7(11-19), single-substitution variant Y1N (synthetic scanning library) peptide on HLA-A*02:01 (human); assay: activation reporter or marker
T3 peptide: NMLDLQPET

[4] = target: T4, HPV 16 E7(11-19), single-substitution variant Y1C (synthetic scanning library) peptide on HLA-A*02:01 (human); assay: activation reporter or marker
T4 peptide: CMLDLQPET

[5] = target: T5, HPV 16 E7(11-19), single-substitution variant Y1H (synthetic scanning library) peptide on HLA-A*02:01 (human); assay: activation reporter or marker
T5 peptide: HMLDLQPET

[6] = target: T6, HPV 16 E7(11-19), single-substitution variant Y1I (synthetic scanning library) peptide on HLA-A*02:01 (human); assay: activation reporter or marker
T6 peptide: IMLDLQPET

[7] = target: T7, HPV 16 E7(11-19), single-substitution variant Y1L (synthetic scanning library) peptide on HLA-A*02:01 (human); assay: activation reporter or marker
T7 peptide: LMLDLQPET

[8] = target: T8, HPV 16 E7(11-19), single-substitution variant Y1F (synthetic scanning library) peptide on HLA-A*02:01 (human); assay: activation reporter or marker
T8 peptide: FMLDLQPET

[9] = target: T9, HPV 16 E7(11-19), single-substitution variant Y1S (synthetic scanning library) peptide on HLA-A*02:01 (human); assay: activation reporter or marker
T9 peptide: SMLDLQPET

[10] = target: T10, HPV 16 E7(11-19), single-substitution variant M2C (synthetic scanning library) peptide on HLA-A*02:01 (human); assay: activation reporter or marker
T10 peptide: YCLDLQPET

[11] = target: T11, HPV 16 E7(11-19), single-substitution variant M2L (synthetic scanning library) peptide on HLA-A*02:01 (human); assay: activation reporter or marker
T11 peptide: YLLDLQPET

[12] = target: T12, HPV 16 E7(11-19), single-substitution variant L3C (synthetic scanning library) peptide on HLA-A*02:01 (human); assay: activation reporter or marker
T12 peptide: YMCDLQPET

[13] = target: T13, HPV 16 E7(11-19), single-substitution variant L3M (synthetic scanning library) peptide on HLA-A*02:01 (human); assay: activation reporter or marker
T13 peptide: YMMDLQPET

[14] = target: T14, HPV 16 E7(11-19), single-substitution variant L3V (synthetic scanning library) peptide on HLA-A*02:01 (human); assay: activation reporter or marker
T14 peptide: YMVDLQPET

[15] = target: T15, HPV 16 E7(11-19), single-substitution variant L5M (synthetic scanning library) peptide on HLA-A*02:01 (human); assay: activation reporter or marker
T15 peptide: YMLDMQPET

[16] = target: T16, HPV 16 E7(11-19), single-substitution variant L5Y (synthetic scanning library) peptide on HLA-A*02:01 (human); assay: activation reporter or marker
T16 peptide: YMLDYQPET

[17] = target: T17, HPV 16 E7(11-19), single-substitution variant Q6H (synthetic scanning library) peptide on HLA-A*02:01 (human); assay: activation reporter or marker
T17 peptide: YMLDLHPET

[18] = target: T18, HPV 16 E7(11-19), single-substitution variant E8A (synthetic scanning library) peptide on HLA-A*02:01 (human); assay: activation reporter or marker
T18 peptide: YMLDLQPAT

[19] = target: T19, HPV 16 E7(11-19), single-substitution variant E8N (synthetic scanning library) peptide on HLA-A*02:01 (human); assay: activation reporter or marker
T19 peptide: YMLDLQPNT

[20] = target: T20, HPV 16 E7(11-19), single-substitution variant E8C (synthetic scanning library) peptide on HLA-A*02:01 (human); assay: activation reporter or marker
T20 peptide: YMLDLQPCT

[21] = target: T21, HPV 16 E7(11-19), single-substitution variant E8K (synthetic scanning library) peptide on HLA-A*02:01 (human); assay: activation reporter or marker
T21 peptide: YMLDLQPKT

[22] = target: T22, HPV 16 E7(11-19), single-substitution variant E8S (synthetic scanning library) peptide on HLA-A*02:01 (human); assay: activation reporter or marker
T22 peptide: YMLDLQPST

[23] = target: T23, HPV 16 E7(11-19), single-substitution variant E8V (synthetic scanning library) peptide on HLA-A*02:01 (human); assay: activation reporter or marker
T23 peptide: YMLDLQPVT

[24] = target: T24, HPV 16 E7(11-19), single-substitution variant T9A (synthetic scanning library) peptide on HLA-A*02:01 (human); assay: activation reporter or marker
T24 peptide: YMLDLQPEA

[25] = target: T25, HPV 16 E7(11-19), single-substitution variant T9D (synthetic scanning library) peptide on HLA-A*02:01 (human); assay: activation reporter or marker
T25 peptide: YMLDLQPED

[26] = target: T26, HPV 16 E7(11-19), single-substitution variant T9C (synthetic scanning library) peptide on HLA-A*02:01 (human); assay: activation reporter or marker
T26 peptide: YMLDLQPEC

[27] = target: T27, HPV 16 E7(11-19), single-substitution variant T9M (synthetic scanning library) peptide on HLA-A*02:01 (human); assay: activation reporter or marker
T27 peptide: YMLDLQPEM

[28] = target: T28, HPV 16 E7(11-19), single-substitution variant T9F (synthetic scanning library) peptide on HLA-A*02:01 (human); assay: activation reporter or marker
T28 peptide: YMLDLQPEF

[29] = target: T29, HPV 16 E7(11-19), single-substitution variant T9S (synthetic scanning library) peptide on HLA-A*02:01 (human); assay: activation reporter or marker
T29 peptide: YMLDLQPES

[30] = target: T30, HPV 16 E7(11-19), single-substitution variant T9V (synthetic scanning library) peptide on HLA-A*02:01 (human); assay: activation reporter or marker
T30 peptide: YMLDLQPEV

B1: TCR 57 (TCR, V domains shown)
Valpha: TQLLEQSPQFLSIQEGENLTVYCNSSSVFSSLQWYRQEPGEGPVLLVTVVTGGEVKKLKRLTFQFGDARKDSSLHITAAQPGDTGLYLCAGARNFNKFYFGSGTKLNVKP
Vbeta: GAVVSQHPSWVICKSGTSVKIECRSLDFQATTMFWYRQFPKQSLMLMATSNEGSKATYEQGVEKDKFLINHASLTLSTLTVTSAHPEDSSFYICSARSWRGGLEQFFGPGTRLTVL
B1: recognises [1]; no recognition [2]; recognises [3]. B1: recognises [4]; recognises [5]; recognises [6]. B1: recognises [7]; recognises [8]; recognises [9]. B1: recognises [10]; recognises [11]; recognises [12]. B1: recognises [13]; recognises [14]; recognises [15]. B1: recognises [16]; recognises [17]; recognises [18]. B1: recognises [19]; recognises [20]; recognises [21]. B1: recognises [22]; recognises [23]; recognises [24]. B1: recognises [25]; recognises [26]; recognises [27]. B1: recognises [28]; recognises [29]; recognises [30].
